Test [1] has as its target T1, Human eIF4E (aa 28-217) with a C-terminal His tag (human, UniProt P06730 28-217).
T1 construct: also called HH-eIF4E; eukaryotic initiation factor 4E
As to the kind of experiment: TR-FRET competition vs biotin-4G2 peptide on HH-eIF4E. On the technique in general: Time-resolved FRET reads energy transfer from a long-lived donor to a nearby acceptor.
Description: (§1) Test peptides (1.6 mM stock in DMSO) were diluted 3 fold in series in DMSO and solutions were diluted 4 fold in Assay Buffer (50 mM NaPi, pH 6.5, 50 mM KCl, 1 mM DTT, 0.004% NP40 and 0.5 mg/ml gammaglobulin). […] The samples were incubated at room temperature for 20 minutes.
(§2) IC50 values were calculated using Condoseo software (Genedata AG, Basel, Switzerland).

In test [2] the target is T1, Human eIF4E (aa 28-217) with a …. The test is described as above. The source holds these as a separate data set.
Description: as §1, §2

Read-outs that look alike come from different tables or passages of the source. Square brackets hold non-standard residues; d marks the D form. Nle = CCCC[C@H](N)C(=O)O

T1 sequence (P06730 other isoform, or with tags, fused parts or gaps limits assumed): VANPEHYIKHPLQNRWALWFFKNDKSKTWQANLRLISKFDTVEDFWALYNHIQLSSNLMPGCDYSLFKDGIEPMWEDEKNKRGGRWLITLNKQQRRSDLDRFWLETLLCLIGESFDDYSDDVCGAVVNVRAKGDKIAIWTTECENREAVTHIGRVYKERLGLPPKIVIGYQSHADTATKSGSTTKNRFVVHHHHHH

The IC50 is the concentration needed to halve the response being measured. Higher therefore signals weaker potency in that assay. Consider Ac-KQYDREFLLDFQF-NH2 [peptide of SEQ ID NO: 55], for which, in test [1], the IC50 was determined as 14600 nM.

B1: peptide of SEQ ID NO: 22 (peptide)
peptide: Ac-KRYDREFLLAFQF[Nle]RRLRQRRRLRRERVRA-NH2
SMILES: CCCC[C@H](NC(=O)[C@H](Cc1ccccc1)NC(=O)[C@H](CCC(N)=O)NC(=O)[C@H](Cc1ccccc1)NC(=O)[C@H](C)NC(=O)[C@H](CC(C)C)NC(=O)[C@H](CC(C)C)NC(=O)[C@H](Cc1ccccc1)NC(=O)[C@H](CCC(=O)O)NC(=O)[C@H](CCCNC(=N)N)NC(=O)[C@H](CC(=O)O)NC(=O)[C@H](Cc1ccc(O)cc1)NC(=O)[C@H](CCCNC(=N)N)NC(=O)[C@H](CCCCN)NC(C)=O)C(=O)N[C@@H](CCCNC(=N)N)C(=O)N[C@@H](CCCNC(=N)N)C(=O)N[C@@H](CC(C)C)C(=O)N[C@@H](CCCNC(=N)N)C(=O)N[C@@H](CCC(N)=O)C(=O)N[C@@H](CCCNC(=N)N)C(=O)N[C@@H](CCCNC(=N)N)C(=O)N[C@@H](CCCNC(=N)N)C(=O)N[C@@H](CC(C)C)C(=O)N[C@@H](CCCNC(=N)N)C(=O)N[C@@H](CCCNC(=N)N)C(=O)N[C@@H](CCC(=O)O)C(=O)N[C@@H](CCCNC(=N)N)C(=O)N[C@H](C(=O)N[C@@H](CCCNC(=N)N)C(=O)N[C@@H](C)C(N)=O)C(C)C
In turn, B1 had an IC50 in test [2] of 198 nM.

In test [1], Ac-KQYDREFLLDF-NH2 [peptide of SEQ ID NO: 56] returned an IC50 of 3440 nM. In other words, the single-digit micromolar range.

B2: peptide of SEQ ID NO: 7 (peptide)
peptide: Ac-KRYDREFLLAFQF[Nle]VYDLGLRRLRQRRRLRR-NH2
SMILES: CCCC[C@H](NC(=O)[C@H](Cc1ccccc1)NC(=O)[C@H](CCC(N)=O)NC(=O)[C@H](Cc1ccccc1)NC(=O)[C@H](C)NC(=O)[C@H](CC(C)C)NC(=O)[C@H](CC(C)C)NC(=O)[C@H](Cc1ccccc1)NC(=O)[C@H](CCC(=O)O)NC(=O)[C@H](CCCNC(=N)N)NC(=O)[C@H](CC(=O)O)NC(=O)[C@H](Cc1ccc(O)cc1)NC(=O)[C@H](CCCNC(=N)N)NC(=O)[C@H](CCCCN)NC(C)=O)C(=O)N[C@H](C(=O)N[C@@H](Cc1ccc(O)cc1)C(=O)N[C@@H](CC(=O)O)C(=O)N[C@@H](CC(C)C)C(=O)NCC(=O)N[C@@H](CC(C)C)C(=O)N[C@@H](CCCNC(=N)N)C(=O)N[C@@H](CCCNC(=N)N)C(=O)N[C@@H](CC(C)C)C(=O)N[C@@H](CCCNC(=N)N)C(=O)N[C@@H](CCC(N)=O)C(=O)N[C@@H](CCCNC(=N)N)C(=O)N[C@@H](CCCNC(=N)N)C(=O)N[C@@H](CCCNC(=N)N)C(=O)N[C@@H](CC(C)C)C(=O)N[C@@H](CCCNC(=N)N)C(=O)N[C@@H](CCCNC(=N)N)C(N)=O)C(C)C
Molecule B2 displayed an IC50 in test [2] of 210 nM.

B3: peptide of SEQ ID NO: 23 (peptide)
peptide: Ac-KRYDREFLLAFQF[Nle]VYDLGLRRLRQRRRLRRERVRA-NH2
SMILES: CCCC[C@H](NC(=O)[C@H](Cc1ccccc1)NC(=O)[C@H](CCC(N)=O)NC(=O)[C@H](Cc1ccccc1)NC(=O)[C@H](C)NC(=O)[C@H](CC(C)C)NC(=O)[C@H](CC(C)C)NC(=O)[C@H](Cc1ccccc1)NC(=O)[C@H](CCC(=O)O)NC(=O)[C@H](CCCNC(=N)N)NC(=O)[C@H](CC(=O)O)NC(=O)[C@H](Cc1ccc(O)cc1)NC(=O)[C@H](CCCNC(=N)N)NC(=O)[C@H](CCCCN)NC(C)=O)C(=O)N[C@H](C(=O)N[C@@H](Cc1ccc(O)cc1)C(=O)N[C@@H](CC(=O)O)C(=O)N[C@@H](CC(C)C)C(=O)NCC(=O)N[C@@H](CC(C)C)C(=O)N[C@@H](CCCNC(=N)N)C(=O)N[C@@H](CCCNC(=N)N)C(=O)N[C@@H](CC(C)C)C(=O)N[C@@H](CCCNC(=N)N)C(=O)N[C@@H](CCC(N)=O)C(=O)N[C@@H](CCCNC(=N)N)C(=O)N[C@@H](CCCNC(=N)N)C(=O)N[C@@H](CCCNC(=N)N)C(=O)N[C@@H](CC(C)C)C(=O)N[C@@H](CCCNC(=N)N)C(=O)N[C@@H](CCCNC(=N)N)C(=O)N[C@@H](CCC(=O)O)C(=O)N[C@@H](CCCNC(=N)N)C(=O)N[C@H](C(=O)N[C@@H](CCCNC(=N)N)C(=O)N[C@@H](C)C(N)=O)C(C)C)C(C)C
In test [2], B3 registered an IC50 of 180 nM.

Values taken from patent publication US20150166621A1 (Hoffmann-La Roche, published 2015).
